# Reference: the DeepSol protein solubility set
# Assay: soluble on expression in E. coli; label from the status in PepcDB or PDB records
row,Sequence,soluble on expression in E. coli
1,MLSDYEEFLRLEKARKIILEILNEKGRDALYDLSGLSGGFLIDEKDKALLNTYIGSSYFAEKVNEYGLKHLGGDENDKCVGFNRTSSAILATILALKPKKVIHYLPELPGHPSIERSCKIVNAKYFESDKVGEILNKIDKDTLVIITGSTMDLKVIELENFKKVINTAKNKEAIVFVDDASGARVRLLFNQPPALKLGADLVVTSTDKLMEGPRGGLLAGKKELVDKIYIEGTKFGLEAQPPLLAGIYRALKNFNLERIRKAFERAKNFDLSKIEKLNKELKAIDDNINIVYERTPTGFVIKRVYKDDTINIKKLIEIGFNLLKNYGIITITVAGMPGASKSLRIDLTSRDAERIDDNYIIKAIVESIKMAFKS,soluble
2,QGMNNPADAGINLNYLANVRPSSRQLAWQRMEMYAFLHFGMNTMTDREWGLGHEDPALFNPRNVDVDQWMDALVAGGMAGVILTCKHHDGFCLWPSRLTRHTVASSPWREGKGDLVREVSESARRHGLKFGVYLSPWDRTEESYGKGKAYDDFYVGQLTELLTQYGPIFSVWLDGANGEGKNGKTQYYDWDRYYNVIRSLQPDAVISVCGPDVRWAGNEAGHVRDNEWSVVPRRLRSAELTMEKSQQEDDASFATTVSSQDDDLGSREAVAGYGDNVCWYPAEVDTSIRPGWFYHQSEDDKVMSADQLFDLWLSAVGGNSSLLLNIPPSPEGLLAEPDVQSLKGLGRRVSEFREALASVRCEARTSSASAAAAHLVDGNRDTFWRPDADDAAPAITLTLPQPTTINAIVIEEAIEHGQRIEHLRVTGALPDGTERVLGQAGTVGYRRILRFDDVEVSSVTLHVDGSRLAPMISRAAAVRI,soluble
3,MSRDLLGLEGKIVMVTGAGRGFGRAIAHGYGRNGATVIAVDPDVELATGVASEVEALGATAIPIRGDMSVVLDVTSTFEKVEELFGLLDGIVHVTTAESKTPFVELLEGEWYDLMSQDVKSSLYVLQQGLRHLAGGGFVTIVLPPAARIEPHTVSVRKAVEGLIEGATRTFPGVRVNGVVPSRDPVGDPYDLPLVRAALGLGSMVSEGIRGVVLEVQLPEPPLEFEPYAALRELP,soluble
4,MPNLNAVIAQNISKGDVIWVPYRKDPMWPALVNNAYPKKVSYSFFPLAPGVDETKRSRFSCAPKLTYALVTTEPLPENANSDLKKAHRAACEYLSSNGKTRGSNIQSLGEAAGGSEKMKKMNGEVTKNKTGKPEKRKKKVDSEQQENEEDDEDLMSPVSKKPSSSERSTPSGSQQQPPITEEQSKSMMKMIDDRFEVLINEIWKSDEVAQSKNQTMKDKMTIKLKNNQFLKESDYDIVFERIFNFIRMQNPSLSFISTFNITSSHIIPHILITCYSACRNLDYQTSKEIFYQLNTRVLGLDSSMSIPVTDHLEELCRLACDESDAIQILENEHGDKISKDGTATQTRGNVFEEMR,not soluble
5,MGSDKIHHHHHHMAFTNNVMIVRHGLLAKLVKLWKENRLLEEIDRLPIELSPRKSKVRGRCCVHKERAVWKYKTLPLLGFDMQDEEDELTPLSEYAKRALFRSENKKENIMCVVDEACSSCVSVNYEITNLCRGCVARSCYMNCPKDAIRFKKNGQAEIDHETCISCGKCHQSCPYHAIVYIPIPCEEVCPVKAISKDKYGVEHIDESKCIYCGKCVNACPFGAIFEISQVFDILQRLRNKEQMVAIVAPSILAQFSAPKEKVYGAIKSLGFEEVVEVAQGAMETTRHEAEELIEKLKEGQPFMTTSCCPSYVQLAEKHIPDLKKYISSTGSPMYYTARIVKEKYPDAKIVFVGPCVAKRKEVKLDPCVDFTLTFEEVGSVLEGLGIKIEEAQPFSVLFNAVREAHGFAQSGGVINAVKVYLKDENVNAVQVANLTKKNVALLRAYAKTGKAPAQFIEVMACEGGCVTGPCTHADKTAGQKQLIKELTKF,not soluble
6,MANSHVNTLNPGDPFRDWLVEEVVANRIRDKKCCVNVFKYNSSHTVCRYQFKGEHFSVMAKFFAEPTGKLKAYNPYKGMMNEYRNLKKAASIINVAKPLAVRKDFNCVLVTEHIPGKSLGWYLKREEDLYGRLSAVAHMLRNLHDNTKSSYNKENEFRNFHDVLDHLKLDYGTRETFNKLLGEWWYSSLLDRDHGCMVHRDVTPSNYIFCKEKPYAIDFESSWFEAHPIRDLGVLTAELKNEFELHKGGGWKAEPYIGNFLWEYSRGEKDFYSITGILPFFMSIGLLRSARLHQGDYRNYLINEARECLGAIYRGNLEHHHHHH,not soluble
7,MAHHHHHHMADAADTLLLSLEVEAAAARNAELSQTIEMLQDEVLRLRRANASLLACDARHCPKVSLQPVETPSATADVSRDESSAAADAREVFVILDDLLFEMADIRSRIILDERVDLTPRAFDSEATVAAHARRCLEEARKLKEAFVVKQHSTAAQVSELRRALGEQAEANQKQTAASALQCAMLERKYDELKRRYDEAVSRQDELVLDGVIQSPSQMLPRS,soluble
8,MGSDKIHHHHHHMFGLIPKEEKFFAMFKDMAANIVTGGKLLKQMLDSYDDPQASQKKIKDVEHACDAITHDIIQKLNKSFVTPFDREDIYALAAALDDIVDLIDASAQRFIMYNVEKPTPEAKELAFLILQGCLAIEKAVSHLGEKFEHIAEHCVEVNALENEADRVCREAISRLFDEEKDPIQLIKWKEIYETLERATDKCEDAANILESVVVKNA,not soluble
9,ATITIETCEDPGDWTAAIGDDTFTFWRGLKDAGLLDEVIQEFHQELVETMRGLQQRVQDPPLQLRDAVLLNNIVQNFGMLDLVKKVLASHKCQMDRSREQYARDLAAL,soluble
10,MKATLHPYQEYSKNFILDHPYCALMLDMGLGKTLSSLTAIDELLHTFEIIENVLVIAPLSVAEKTWTDEIEKWDHLQHLTFSKVLGNPKQREEALFKKADVYLINRENVEWLVNYYQRNWPFKTVIIDELSSFKSSSAKRFKALRKVRPKMERVIGLTGTPSPNSLMDLWAQMYLLDQGERLGKTITQYRNKYFVPAQKNGHIVYSWQLIPGAEEAIYNKISDICVSMKAKDYLRLPPRTENIIELDLNPTSWKQYKELEREYVLELEGTDVVASNAATLSNKLLQLSNGAVYDENGDGREIHQEKLNALERVIEDAQGQSVLVFYQYQHDLERIQARFKQAKALNVSDGDIEKWNEGKISLLLAHPQSAGHGLNLQKGGHIIVWFGLTWSLEFYQQANARLDRQGQTQPVIIHHLVTKGTIDEQVIKALQAKEQGQSALMAAVKAKIEEYRGDKLG,not soluble
11,MRTATSTSPATGTPAPVPSRTPDVTVTVIVYNDAGRLPRAVASALRQSHANIEVVISDDHSTDATEEVARELAAHDPRVVYLRLPENSGGCSAPRNRALEIARAPYLMFLDSDDELPERAVEVLLAAHRERDLDFAMGAVHRIREDGGRRTTWMPHLVAERRTLDGIEADPRLLFEHLSTSKMYARAFLDRHGLRFPEGIHYEDQLFSAQAYCLAKTFTVVPEPVYRWYIAPYADADSASISNQRHKLTNVRDRVHVQRLIDAFLAESGHEALREDKDFKFLKHDFRMYAGDLPYRDDTWLASFADLMNPYLDTLAEGAYARLPRAERVVLRLLRDRRLSDVRTAARGLGHDVAPRRVTPDEQSGRVYWGEEVPASPESRRELDLTDLDLDTRPFFTALLRHEITEITRGPGASVDLTVRTYDPALRLPVGPQRAVLHLSPGPRRLTVPFRLSPVRPGLFEGRVRLDLAAARLPLHGFAGTRHPVLRLRHRGRTHTGILLAPLAFPPLTARVPYRTGLTPHRVTLRPEGHNPGRLQITWQPVGTTAKILGPAARRLSTPRTRRAARLLSNILRLEHHHHHH,soluble
12,MALDVKKYPFIKSLDDELKKYGGGITLTDLLLNSTTLIDQAKDRIQKTKSGDELPHYVSYNEPVLVFYTTLLSLAILNDVKLIRRYAYAEAKQFRSLLHTENEENLLEISKLLDLKINRCDPIKFYLEKKRRIIQKEFCVHFIDYLKYTKDLKEDWKLSGQILHKGYVYLDKNQLIGLIAESIKSKIVEMIRPLNLKEIPEKLKSLIERRGI,soluble
13,MQNRQVANATKVAVAGASGYAGGEILRLLLGHPAYADGRLRIGALTAATSAGSTLGEHHPHLTPLAHRVVEPTEAAVLGGHDAVFLALPHGHSAVLAQQLSPETLIIDCGADFRLTDAAVWERFYGSSHAGSWPYGLPELPGARDQLRGTRRIAVPGCYPTAALLALFPALAADLIEPAVTVVAVSGTSGAGRAATTDLLGAEVIGSARAYNIAGVHRHTPEIAQGLRAVTDRDVSVSFTPVLIPASRGILATCTARTRSPLSQLRAAYEKAYHAEPFIYLMPEGQLPRTGAVIGSNAAHIAVAVDEDAQTFVAIAAIDNLVKGTAGAAVQSMNLALGWPETDGLSVVGVAP,soluble
14,MSLAQSIVVVAEPSHSDLYDLLAVGNAGIRLVSAAGLSTAIGPSDPDIVILDSGTDADGGITLLGEIKALRNDLPVIFLTDSSSEEIVLKAFRKGAREYFRKPVDLHVLQHAVETILALRRMQRERRDPLKRHYSDPINLPDDLPESIGRAVMHIKSNYDCALYLDDLARAAHLSKFHFCRNFKKYIGVSPMRFMNMVKISKAETLLRRADLTISTVAYKLGFNDPSEFTRQFKSITGISPSAFRRSCLSEGHHHHHH,not soluble
15,MGSDKIHHHHHHMLISVVLPAYNVQDTIGESIDSILSQTFTDFELIIINDGSQDNTEEVIHAYSDKRIRYYRNEKNEGLIYTLNRGLDLAQGKYIARMDADDVSLPTRFEKQVKVMEESPNIVVCGTQIILFGVDTAKRFTLFLPEESEDLKNLLFIQTCFAHPTVMVRRQVLIDNEVRYDADYPHAEDYKMWIDLSLLGEFYNIQEPLLRYRLSDGQVSHKFSDVQKRTASACRRFLISARFKDEKLDRQIENSIDISTICYIKKKEYPRELLEVLYSSLRKYNFKCLCYLFVSGDIFRFEIVVALALLKRFIIKKDRLL,not soluble
16,MLDANKLQQAVDQAYTQFHSLNGGQNADYIPFLANVPGQLAAVAIVTCDGNVYSAGDSDYRFALESISKVCTLALALEDVGPQAVQDKIGADPTGLPFNSVIALELHGGKPLSPLVNAGAIATTSLINAENVEQRWQRILHIQQQLAGEQVALSDEVNQSEQTTNFHNRAIAWLLYSAGYLYCDAMEACDVYTRQCSTLLNTIELATLGATLAAGGVNPLTHKRVLQADNVPYILAEMMMEGLYGRSGDWAYRVGLPGKSGVGGGILAVVPGVMGIAAFSPPLDEDGNSVRGQKMVASVAKQLGYNVFKGLEHHHHHH,not soluble
17,MAHHHHHHMSPAADTTHSTTKPCAPNRSSIPETCSRAPNGTRASAADEVTLLTAPQFAKSTKDTRSTARQQEEQLSDVLVLIRHGERQDHVDRAWKGNALLPLYDPPLSNAGRMQSFETALRYFALRQERKVEKRIRGTFTLFLVSPFHRCIETAAVMNVIAFEGRLPMYVEPFLSDWQQAKVFRTAPVLGGSYTTSGRPSVPGAKGDRLLFRPQVEALRVTLIPFLKTRAAEETELLAEYKIGAEVASAWTTLAEEWLNTHTALPVWTCAAATNVIEAKVASRSDGASDVRATSRKAAKGSQPSPRDASNEGYRGCGVAHPEGKSDLLRRCEQVMSTHFLRCAAVASDTMVPLAIQTAVAAERTTRLPKYFQIWAERPEENRESAGPPALLPPMHIMAITHADVVSTLLEVCCPKYHDKGAGYSVPYCSVTTLQRHNNYYRIPTAEERRRREASASTLAPAQNRGKCYAKKKGNTPSSKNQLMTPIRTRPLSPLSVEWNVEAVGSTDLLRTRIVIQYTK,soluble
18,MRKLKYQRDFFPLLHLNYGSNWRCGMDRIAYFKSLLEKNPDNPMVHYSLGLEYFKVKDYENAIKHLERYLELQEDEGAAYRTLAKCYEELGEFQKAIEVLEEGIRQAMKYNHPSMAQEYQQWIEELKGMAFLEHHHHHH,not soluble
19,MTVPLYKQIASLIEDSIVDGTLSIDQRVPSTNELAAFHRINPATARNGLTLLVEAGILYKKRGIGMFVSAQAPALIRERRDAAFAATYVAPLIDESIHLGFTRARIHALLDQVAESRGLYK,not soluble
